# B1: RNase A: enzyme which cleaves its associated RNA linker in a scarless manner; stock 10 mg/ml (protein, UniProt P61823 27-150, looked up)
# Ribonuclease pancreatic: KETAAAKFERQHMDSSTSAASSSNYCNQMMKSRNLTKDRCKPVNTFVHESLADVQAVCSQKNVACKNGQTNCYQSYSTMSITDCRETGSSKYPNCAYKTTQANKHIIVACEGNPYVPVHFDASV
# B2: RNase T1: enzyme which cleaves its associated linker in a scarless manner; stock 10 mg/ml (protein, UniProt P00651 27-130, looked up)
# Guanyl-specific ribonuclease …: ACDYTCGSNCYSSSDVSTAQAAGYQLHEDGETVGSNSYPHKYNNYEGFDFSVSSPYYEWPILSSGDVYSGGSPGADRVVFNENNQLAGVITHTGASGNNFVECT
# Legend:
# [1] = tested on: cleavable oligonucleotide; assay: Enzymatic release of BHQ-1 quencher from FITC-labelled cleavable oligonucleotide, denaturing gel; type: biochemical; settings: 10-fold serial dilutions of stock enzyme from 10^−2 to 10^−5 in 10 mM Tris-HCl pH 7.5, 1 mM EDTA; 150 nM cleavable oligonucleotide
# Description: Referring now to FIG. 4, to show cleavage of the linker and release of the pharmacore oligonucleotides were made which incorporated a fluorophore (FITC, shown as F in FIG. 4) 5′ to the cleavable linker within the sequence of the cleavable oligonucleotide. A quencher molecule, BHQ-1, was then attached to the cleavable linker. This can be released by cleavage in the same manner as any chemical structure used in library generation. Light up of the oligonucleotide is seen when the quencher is removed from the cleavable linker.
# Three different enzymes have been identified which cleave their associated linkers in a scarless manner (RNase A, RNase T1 A and RNase 1 A; labelled as enzymes A, B and C respectively in FIG. 4). All 3 were tested with their compatriot linkers. In each case 10 μl reactions were set up; 10 mM Tris-HCl, 1 mM EDTA, 150 nM cleavable oligonucleotide 0.1 μl of stock enzyme (RNase A=10 mg/ml, RNase T1=10 mg/ml RNase 1=1.5 mg/ml) then to 10 μl with nuclease free water. Samples were incubated for 15 minutes at 37° C. and then 10 μL denaturing loading dye added (95% formamide, 0.1% xylene cyanole, 0.1% Bromophenol Blue, 20 mM Tris-HCl pH 7.5). Samples were boiled for 2 minutes at 95° C. and then rapidly cooled to 4° C. at 4° C./s. These samples were then loaded onto a denaturing TBE-gel (12.5% polyacrylamide, 7M Urea). The gel was run at 150V for 75 minutes and the imaged using a Syngene Ingenius3 system exciting the FITC. Release of the quencher means the fluorophore can be seen and imaged as ‘light up’. This is seen as appearance of yellow DNA band in the presence of enzyme. By staining with SyBr gold (Thermo) DNA can be seen and this is again quenched when quencher is present but the size shift corresponding to the change in mass can be seen as well as increased signal (grey scale image below fluorophore, FIG. 4). In both cases we can see release only occurs in the presence of the enzymes and is rapid (<15 minutes). […]
# [2] = tested on: cleavable oligonucleotide; assay: Enzymatic release of payload from cleavable linker in 100 μm aqueous droplets; type: biochemical; settings: 10 μl stock RNase A (10 mg/ml) per 1 ml aqueous phase, 37° C. for 15 minutes, 100 μm droplets
# Method: We also confirmed that the enzymes function in the droplet environment (see FIG. 5). Results are shown for RNase A. 1 ml of aqueous phase was set up using 10 mM Tris-HCl, 1 mM EDTA, 150 nM cleavable oligonucleotide 10 μl of stock RNase A (10 mg/ml) then to 1 ml with nuclease free water. Droplets of […] mean diameter were made using a 100 μm etch depth chip with the aqueous phase as described above and the oil phase comprising of PSF-2 cST oil (Clearco Products Inc.) with 2% w/v Gransurf G67 (Grant Industries Inc.) Droplets were incubated with and without enzyme at 37° C. for 15 minutes and them imaged under a Floid fluorescence microscope illuminating at 482/18 nm and emission filters of 532/59 nm.
# Jurkat cells = assay: Effect of RNaseA in the cell mixture on cellular growth; type: cell-based; settings: 0.1 μg/ml in the cell mixture
# Description: DNA guides assembly of monomers—were synthesised using conventional chemistry the RNA tags were synthesised in advance by IDT. The last 3 nucleotides contain phosphorothioate linkages to prevent cleavage by exonucleases. Individual reagents are then tagged with a guide to a specific RNA specific to a unique sequence incorporated into the guide oligonucleotide (100 unique monomers can be assembled, assuming up to 4 guide sequences into over 100,000,000 unique compounds). […] 1) Beads are packed into a column (each bead is clonal with a unique DNA sequence to guide assembly but μM concentrations of this clonal guide on each bead) and at 20 μM 200 million can be present per ml of bead volume. 2) A pool of monomers and appropriate reagents are then washed onto the column and reactions allowed to proceed, the column can be washed and new reaction chemistry added as needed (note fresh monomers can also be added). 3) Chemical synthesis varies with monomers used (see example 2, section 4). 4) Finally the beads are washed with 10 column volumes of TE with 100 mM NaCl and then 2 column volumes of appropriate media for growth of cells in the phenotypic screen e.g. RPMI. 5) Beads are then collected in the growth media and ready for encapsulation with target cells. […]
# RNA guides = assay: RNaseA cleavage of RNA guides in growth media; type: biochemical
Molecule,dilution of the enzyme at which activity is seen [1],light up (quencher release) in droplets [2],effect on cellular growth (Jurkat cells),"duration of enzyme activity in growth media (RNA guides; 0.1 μg/ml, growth media tested)","time for cleavage of RNA guides (RNA guides; in RPMI, lysogeny broth, tryptic soy broth and DMEM)"
RNase 1: enzyme which cleaves its associated linker in a scarless manner; stock 1.5 mg/ml,10^−3,–,–,–,–
B1,10^−4,light up occurs in droplets in the presence of enzyme,doesn't affect cellular growth,at least 48 h,15 to 20 min
B2,10^−3,–,–,–,–

# Source: patent US20220073907A1, “TAGLESS ENCODED CHEMICAL LIBRARY” (NANNA THERAPEUTICS LIMITED, priority 2016, published 2022)
